± gives the standard deviation of the averaged measurements.
System: ATP
Assay: switch fluorescence ratio, 500 uM ATP over buffer (Cy3 cluster intensity, sum of 5 cycles each) (fold (ratio)); higher = stronger signal-on switching upon ATP binding; sequences stand for … in TCGTCGGCAGCGTCAGATGTGTATAAGAGACAGTTTTTTTTTTTTTTTTTTTTTTTTT…TC
Conditions: aptamer strand: ATP DNA aptamer (quencher-CACCTGGGGGAGTATTGCGGAGGAAGG + anchor), 100 nM annealed; ATP concentration: 500 uM
How it was run: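 The quencher-labelled ATP aptamer, at 100 nM, was annealed to Cy3-labelled switching-strand clusters on a modified Illumina MiSeq flow-cell. The clusters were imaged in selection buffer, then after 15 min with 500 uM ATP at 22 °C, and this buffer/ATP cycle ran five times with NaOH stripping and re-annealing between runs. Per-cluster fluorescence ratios, summed target-cycle over summed buffer-cycle Cy3 intensity, were averaged per switch-domain sequence. Clusters outside 100-1000 RFU were excluded.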
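Also: ATP exposure 15 min at 22 °C before imaging.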

TTTGCACAGC and TTTGCACTGT are within error of each other in switch fluorescence ratio: 0.997 ± 0.051 for the first, 0.998 ± 0.055 for the second.

TTTGCATCTT and TTTGCATGAT are within error of each other in switch fluorescence ratio: 0.9984 ± 0.0022 for the first, 0.982 ± 0.017 for the second.

TTTGCATTTG and TTTGCCGCGG are within error of each other in switch fluorescence ratio: 1.03 ± 0.013 for the first, 0.995 ± 0.023 for the second.

First: TTTGCCGGCG
Second: TTTGCCGGTA
The switch fluorescence ratio of the first is lower: 0.97337 ± 0.00069 for the first, 1.01 ± 0.014 for the second.

TTTGCCTGTA and TTTGCCTT are within error of each other in switch fluorescence ratio: 0.992 ± 0.032 for the first, 1.06 ± 0.051 for the second.

TTTGCGAACA and TTTGCGAGGT are within error of each other in switch fluorescence ratio: 1.06 ± 0.079 for the first, 0.972 ± 0.026 for the second.

Compared with TTTGCGCGCG, TTTGCGGAAT is higher in switch fluorescence ratio: 0.992 ± 0.021 for the first, 1.05 ± 0.027 for the second.

TTTGCGGGTT and TTTGCTAGTT are within error of each other in switch fluorescence ratio: 1 ± 0.057 for the first, 0.988 ± 0.009 for the second.

TTTGCTATAT and TTTGCTGGAA are within error of each other in switch fluorescence ratio: 1.18 ± 0.33 for the first, 0.995 ± 0.015 for the second.

TTTGCTTAGG and TTTGCTTCGT are within error of each other in switch fluorescence ratio: 0.993 ± 0.037 for the first, 1.04 ± 0.048 for the second.

TTTGCTTTGG and TTTGGACGTC are within error of each other in switch fluorescence ratio: 0.997 ± 0.019 for the first, 0.992 ± 0.037 for the second.

TTTGGAGGGA and TTTGGAGTGT are within error of each other in switch fluorescence ratio: 1.48 ± 0.8 for the first, 1.08 ± 0.12 for the second.

Going from TTTGGATCAG to TTTGGATGAA, the switch fluorescence ratio rises from 1.01 ± 0.02 to 1.05 ± 0.013.

TTTGGATGCT and TTTGGCAAGG are within error of each other in switch fluorescence ratio: 1.05 ± 0.14 for the first, 1.01 ± 0.054 for the second.

TTTGGCATGC and TTTGGCATGG are within error of each other in switch fluorescence ratio: 1.11 ± 0.14 for the first, 1.024 ± 0.0073 for the second.

TTTGGCCAAA and TTTGGCCAAG are within error of each other in switch fluorescence ratio: 1.05 ± 0.046 for the first, 0.996 ± 0.029 for the second.

TTTGGCCCCT and TTTGGCGAAC are within error of each other in switch fluorescence ratio: 1 ± 0.03 for the first, 1.02 ± 0.02 for the second.

TTTGGCGGCG and TTTGGCGGGG are within error of each other in switch fluorescence ratio: 0.993 ± 0.067 for the first, 0.999 ± 0.04 for the second.

TTTGGCGTTG and TTTGGCTATT are within error of each other in switch fluorescence ratio: 0.9881 ± 0.0086 for the first, 0.976 ± 0.028 for the second.

TTTGGCTTAT and TTTGGGAAGG are within error of each other in switch fluorescence ratio: 0.989 ± 0.022 for the first, 0.985 ± 0.034 for the second.

TTTGGGACTT and TTTGGGAGGA are within error of each other in switch fluorescence ratio: 1.01 ± 0.035 for the first, 1.02 ± 0.047 for the second.

TTTGGGATTT and TTTGGGGAAT are within error of each other in switch fluorescence ratio: 1.04 ± 0.15 for the first, 1.02 ± 0.033 for the second.

TTTGGGGGCA and TTTGGGGGTG are within error of each other in switch fluorescence ratio: 0.989 ± 0.041 for the first, 1.02 ± 0.038 for the second.

TTTGGGGTAC and TTTGGGGTAT are within error of each other in switch fluorescence ratio: 1.72 ± 1.3 for the first, 0.995 ± 0.028 for the second.

TTTGGGTAGG and TTTGGGTAGT are within error of each other in switch fluorescence ratio: 1.03 ± 0.062 for the first, 1.04 ± 0.034 for the second.

TTTGGGTGCA and TTTGGGTGTC are within error of each other in switch fluorescence ratio: 0.987 ± 0.038 for the first, 0.979 ± 0.014 for the second.

TTTGGGTTCT and TTTGGGTTTG are within error of each other in switch fluorescence ratio: 1.03 ± 0.031 for the first, 1.01 ± 0.029 for the second.

Compared with TTTGGTATAG, TTTGGTCAAG is higher in switch fluorescence ratio: 0.975 ± 0.01 for the first, 1.01 ± 0.016 for the second.

TTTGGTGGAT and TTTGGTTGAG are within error of each other in switch fluorescence ratio: 0.9794 ± 0.0058 for the first, 1 ± 0.047 for the second.

First: TTTGGTTGG
Second: TTTGGTTGTA
The switch fluorescence ratio of the first is higher: 1.0076 ± 0.00057 for the first, 0.965 ± 0.014 for the second.

TTTGGTTTCA and TTTGGTTTGA are within error of each other in switch fluorescence ratio: 0.994 ± 0.013 for the first, 1 ± 0.046 for the second.

TTTGTAACAT and TTTGTACGGG are within error of each other in switch fluorescence ratio: 0.966 ± 0.047 for the first, 0.999 ± 0.036 for the second.

TTTGTAGCAG and TTTGTAGCCG are within error of each other in switch fluorescence ratio: 1.09 ± 0.028 for the first, 1.01 ± 0.061 for the second.

Compared with TTTGTAGCTG, TTTGTAGTAT is lower in switch fluorescence ratio: 1.4 ± 0.046 for the first, 1.03 ± 0.1 for the second.

TTTGTATTAC and TTTGTATTTT are within error of each other in switch fluorescence ratio: 1.32 ± 0.38 for the first, 0.992 ± 0.026 for the second.

TTTGTCAGTA and TTTGTCCCG are within error of each other in switch fluorescence ratio: 0.989 ± 0.018 for the first, 1.01 ± 0.044 for the second.

TTTGTCGACC and TTTGTCGGGT are within error of each other in switch fluorescence ratio: 0.992 ± 0.0055 for the first, 0.994 ± 0.014 for the second.

First: TTTGTCTAG
Second: TTTGTCTGGT
The switch fluorescence ratio of the first is higher: 1.022 ± 0.00058 for the first, 0.992 ± 0.017 for the second.

TTTGTCTTTT and TTTGTGAGT are within error of each other in switch fluorescence ratio: 1.02 ± 0.045 for the first, 0.979 ± 0.017 for the second.

TTTGTGAGTA and TTTGTGGAGT are the same in switch fluorescence ratio: 1 ± 0.023 for the first, 1 ± 0.021 for the second.

TTTGTGGGA and TTTGTGGGCC are within error of each other in switch fluorescence ratio: 0.997 ± 0.021 for the first, 1.03 ± 0.093 for the second.

Going from TTTGTGGGCG to TTTGTGGGG, the switch fluorescence ratio rises from 0.932 ± 0.021 to 0.978 ± 0.023.

Sequence TTTGTGGGGT has a switch fluorescence ratio of 1.01 ± 0.047.

From the supplement of paper PMC10126150
